Residue numbers refer to the chain shown, from its start. Numbers in names are those of the source.
Assays:
SsoSSB OB domain (15N) [1] = molecular target: T1, SsoSSB OB domain (15N) (Sulfolobus solfataricus, UniProt Q97W73 1-114); test: NMR HSQC; 1:1, 298 K; the RNA complex is only a HADDOCK model; ITC: 20 mM MES pH 6.5, 100 mM K-glutamate, 1 mM MgCl2, 50 C; PIFE: 50 mM Tris-HCl pH 8.0, 10 mM KCl; smFRET: same buffer plus Trolox and oxygen scavenger, room; conditions: protein: recombinant; single-stranded
T1 sequence: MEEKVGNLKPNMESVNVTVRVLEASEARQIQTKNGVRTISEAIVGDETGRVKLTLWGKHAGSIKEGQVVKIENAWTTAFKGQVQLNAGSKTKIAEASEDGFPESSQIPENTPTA

[2] = molecular target: T2, SsoSSB (single-stranded DNA-binding protein) (Sulfolobus solfataricus, UniProt Q97W73 1-148); test: FRET hairpin melting; hairpin disrupted at 20 nM SsoSSB; ITC: 20 mM MES pH 6.5, 100 mM K-glutamate, 1 mM MgCl2, 50 C; PIFE: 50 mM Tris-HCl pH 8.0, 10 mM KCl; smFRET: same buffer plus Trolox and oxygen scavenger, room; conditions: protein: recombinant; label: 5' Cy5, 3' Cy3; hairpin with single-nucleotide bulge
T2 sequence: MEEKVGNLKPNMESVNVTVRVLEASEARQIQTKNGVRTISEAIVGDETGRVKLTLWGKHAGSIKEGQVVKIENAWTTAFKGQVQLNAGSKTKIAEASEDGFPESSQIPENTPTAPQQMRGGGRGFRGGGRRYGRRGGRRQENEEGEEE

[3] = molecular target: T2, SsoSSB (single-stranded DNA-binding …); test: fluorescence (PIFE); ~0.7 nM RNA; Hill 1.7 +/- 0.2; ITC: 20 mM MES pH 6.5, 100 mM K-glutamate, 1 mM MgCl2, 50 C; PIFE: 50 mM Tris-HCl pH 8.0, 10 mM KCl; smFRET: same buffer plus Trolox and oxygen scavenger, room; conditions: protein: recombinant, label: 5' biotin, 3' Cy3
[4] = molecular target: T2, SsoSSB (single-stranded DNA-binding …); test: fluorescence (PIFE); 10 nM RNA, 10 mM KCl; Hill 1.8 +/- 0.3; ITC: 20 mM MES pH 6.5, 100 mM K-glutamate, 1 mM MgCl2, 50 C; PIFE: 50 mM Tris-HCl pH 8.0, 10 mM KCl; smFRET: same buffer plus Trolox and oxygen scavenger, room; conditions: protein: recombinant, label: 5' biotin, 3' Cy3
[5] = molecular target: T3, SsoSSB A114C-Alexa Fluor 647 (Sulfolobus solfataricus, UniProt Q97W73 1-148, A114C); test: single-molecule FRET; 1-2 nM protein; dissociation 6 +/- 1 s-1, association 0.12 +/- 0.08 s-1; ITC: 20 mM MES pH 6.5, 100 mM K-glutamate, 1 mM MgCl2, 50 C; PIFE: 50 mM Tris-HCl pH 8.0, 10 mM KCl; smFRET: same buffer plus Trolox and oxygen scavenger, room; conditions: protein: recombinant; tags: Alexa Fluor 647 label; label: 5' biotin, 3' Cy3; single-stranded
T3 sequence: T2 sequence with A114C

[6] = molecular target: T2, SsoSSB (single-stranded DNA-binding …); test: ITC; apparent Kd, 50 C; text says 21T, Fig. 1 legend says poly-A DNA; ITC: 20 mM MES pH 6.5, 100 mM K-glutamate, 1 mM MgCl2, 50 C; PIFE: 50 mM Tris-HCl pH 8.0, 10 mM KCl; smFRET: same buffer plus Trolox and oxygen scavenger, room; conditions: protein: recombinant
[7] = molecular target: T2, SsoSSB (single-stranded DNA-binding …); test: fluorescence (PIFE); 10 nM DNA, 10 mM KCl; Hill 1.6 +/- 0.5; ITC: 20 mM MES pH 6.5, 100 mM K-glutamate, 1 mM MgCl2, 50 C; PIFE: 50 mM Tris-HCl pH 8.0, 10 mM KCl; smFRET: same buffer plus Trolox and oxygen scavenger, room; conditions: protein: recombinant, label: 5' biotin, 3' Cy3
[8] = molecular target: T3, SsoSSB A114C-Alexa Fluor 647; test: single-molecule FRET; 1-2 nM protein; dissociation 3.8 +/- 0.8 s-1, association 0.06 +/- 0.01 s-1; ITC: 20 mM MES pH 6.5, 100 mM K-glutamate, 1 mM MgCl2, 50 C; PIFE: 50 mM Tris-HCl pH 8.0, 10 mM KCl; smFRET: same buffer plus Trolox and oxygen scavenger, room; conditions: protein: recombinant; tags: Alexa Fluor 647 label; chain copies: 2; label: 5' biotin, 3' Cy3; single-stranded
SsoSSB OB domain (15N) [9] = molecular target: T1, SsoSSB OB domain (15N); test: NMR HSQC; 1:1, 298 K; 2MNA is an earlier structure; ITC: 20 mM MES pH 6.5, 100 mM K-glutamate, 1 mM MgCl2, 50 C; PIFE: 50 mM Tris-HCl pH 8.0, 10 mM KCl; smFRET: same buffer plus Trolox and oxygen scavenger, room; conditions: protein: recombinant; single-stranded
[10] = molecular target: T2, SsoSSB (single-stranded DNA-binding …); test: ITC; apparent Kd, 50 C; text says 21U, Fig. 1 legend says poly-rA; ITC: 20 mM MES pH 6.5, 100 mM K-glutamate, 1 mM MgCl2, 50 C; PIFE: 50 mM Tris-HCl pH 8.0, 10 mM KCl; smFRET: same buffer plus Trolox and oxygen scavenger, room; conditions: protein: recombinant

UUUUUU (ssRNA) [6U RNA]
binding result (SsoSSB OB domain (15N) [1]): binds

UGAUAAUCUCUUAUAGAAUUGAAAGU (structured_RNA) [RNA Hairpin]
binding result [2]: binds

CCCCCCCCCCCC (ssRNA) [C12ssRNA]
Kd [3]: 6 ± 1 nM | Kd [4]: 4.2 ± 0.6 nM | binding result [5]: binds

TTTTTTTTTTTTTTTTTTTTT (ssDNA) [21T DNA]
Kd [6]: 95 ± 0.6 nM

CCCCCCCCCCCC (ssDNA) [C12ssDNA]
Kd [7]: 8.2 ± 0.9 nM | binding result [8]: binds

TTTTTT (ssDNA) [6T ssDNA]
binding result (SsoSSB OB domain (15N) [9]): binds

UUUUUUUUUUUUUUUUUUUUU (ssRNA) [R21U (21U RNA)]
Kd [10]: 93 ± 0.4 nM

— publication PMC5346138, “High-affinity RNA binding by a hyperthermophilic single-stranded DNA-binding protein”
